Molecular target: FcγRI (UniProt P12314)
Assay: BLI

Chain of UniProt P12314 (P12314 16-374): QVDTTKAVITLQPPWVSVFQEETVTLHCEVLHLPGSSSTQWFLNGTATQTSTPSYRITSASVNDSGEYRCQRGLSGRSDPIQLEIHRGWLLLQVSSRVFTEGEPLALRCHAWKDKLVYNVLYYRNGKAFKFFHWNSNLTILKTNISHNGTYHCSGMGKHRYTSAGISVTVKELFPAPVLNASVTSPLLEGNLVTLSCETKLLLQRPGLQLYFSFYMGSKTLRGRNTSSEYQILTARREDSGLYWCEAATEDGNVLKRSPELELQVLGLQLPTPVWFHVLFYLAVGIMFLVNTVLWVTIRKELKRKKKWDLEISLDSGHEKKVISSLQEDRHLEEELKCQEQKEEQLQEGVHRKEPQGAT

Kd: 0.01 µM
Substance: Sintilimab (antibody)
